Assay results as given in patent US20250042970A1 (AURINIA PHARMACEUTICALS, published 2025).

Experiments:
[1] = biological target: human BAFF (Acros Biosystems) (human, UniProt Q9Y275 134-285); assay: cell-based or functional assay
[2] = biological target: T1, human APRIL (Acros Biosystems) (human, UniProt O75888 115-250, limits assumed); assay: cell-based or functional assay
T1 sequence: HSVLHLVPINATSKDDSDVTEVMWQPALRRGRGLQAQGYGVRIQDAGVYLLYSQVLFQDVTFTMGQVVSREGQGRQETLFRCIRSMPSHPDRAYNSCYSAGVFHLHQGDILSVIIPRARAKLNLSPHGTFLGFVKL

[3] = biological target: human BAFF-60mer (Adipogen) (human, UniProt Q9Y275 134-285); assay: cell-based or functional assay
[4] = biological target: T2, human BAFF (Examples 21-23) (human, UniProt Q9Y275 134-285); assay: assay not given (Example 21)
T2 construct: also called huBAFF

[5] = biological target: T3, human APRIL (Examples 21-23) (human, UniProt O75888 105-250); assay: assay not given (Example 21)
T3 construct: also called huAPRIL
T3 sequence: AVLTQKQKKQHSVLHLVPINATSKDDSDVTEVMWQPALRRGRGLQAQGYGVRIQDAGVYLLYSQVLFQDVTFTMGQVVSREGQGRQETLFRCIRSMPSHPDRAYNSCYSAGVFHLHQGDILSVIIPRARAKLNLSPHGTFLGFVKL

[6] = biological target: T2, human BAFF (Examples 21-23); assay: assay not given (Example 21); remark: listed apart in the source
[7] = biological target: T3, human APRIL (Examples 21-23); assay: assay not given (Example 21); remark: listed apart in the source
[8] = biological target: T2, human BAFF (Examples 21-23); assay: SPR (Carterra LSA, HC30M chip)
Description: (§1) The KD of a BAv9-1 CRD-IgG4 Fc fusion protein, and other BAFF or APRIL binding molecules, the BAFF/APRIL binding molecule Atacicept and a different recombinant TACI-Fc fusion protein RC18 (also known as Telitacicept), to human or murine BAFF or human or murine APRIL were determined by surface plasmon resonance (Carterra LSA, HC30M sensor chip).

[9] = biological target: T3, human APRIL (Examples 21-23); assay: SPR (Carterra LSA, HC30M chip)
Description: as §1

[10] = biological target: T4, murine BAFF (Examples 22-23) (mouse, UniProt Q9WU72 127-309); assay: SPR (Carterra LSA, HC30M chip)
T4 sequence (Q9WU72 127-309 limits assumed): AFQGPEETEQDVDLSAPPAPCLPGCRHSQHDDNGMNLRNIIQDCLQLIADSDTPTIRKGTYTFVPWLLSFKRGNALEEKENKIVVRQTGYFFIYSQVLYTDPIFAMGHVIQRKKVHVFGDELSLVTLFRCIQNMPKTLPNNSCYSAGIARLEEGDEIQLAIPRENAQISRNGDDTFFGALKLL
Description: as §1

[11] = biological target: T3, human APRIL (Examples 21-23); assay: colorimetric ELISA, inhibition curves
Text: (§2) A colorimetric ELISA was used to assess the binding of BAFF/APRIL binding molecules to human and murine BAFF and APRIL. Inhibition curves based on binding to soluble human and murine BAFF and APRIL were used to determine the IC₅₀ values for binding of the exemplary BCMA CRD variant-IgG4 fusion protein BAv9-1 CRD-IgG4 Fc, Atacicept and a different recombinant TACI-Fc fusion protein RC18 (also known as Telitacicept).
(§3) FIG. 34A and FIG. 34B show the inhibition curves of the three different BAFF/APRIL binding molecules to murine BAFF (FIG. 34A) and murine APRIL (FIG. 34B). Compared to the IC₅₀ values determined for Atacicept and RC18 (Telitacicept), the IC₅₀ of the exemplary BCMA CRD variant-IgG4 fusion protein BAv9-1 CRD-IgG4 Fc was orders of magnitude lower for both murine BAFF and murine APRIL. The IC₅₀ values for BAv9-1 CRD-IgG4 Fc for murine BAFF and murine APRIL were 1.5 nM and 2.7 nM respectively.

[12] = biological target: T4, murine BAFF (Examples 22-23); assay: colorimetric ELISA, inhibition curves
Text: as §2, §3

[13] = biological target: T5, murine APRIL (Examples 22-23) (mouse, UniProt Q9D777 96-241); assay: colorimetric ELISA, inhibition curves
T5 sequence (looked up): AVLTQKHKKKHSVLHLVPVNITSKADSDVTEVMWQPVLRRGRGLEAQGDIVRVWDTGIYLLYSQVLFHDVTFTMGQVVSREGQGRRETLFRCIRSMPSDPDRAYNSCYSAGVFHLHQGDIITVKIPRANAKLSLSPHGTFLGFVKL
Text: as §2, §3

[14] = biological target: T5, murine APRIL (Examples 22-23); assay: SPR (Carterra LSA, HC30M chip); murine ligand (Table 13)
Description: as §1

[15] = biological target: T2, human BAFF (Examples 21-23); assay: ratio of KD values of Table 11, assay not stated (Example 21); reference Atacicept
[16] = biological target: T3, human APRIL (Examples 21-23); assay: as above

IC50 for proliferation of stimulated B cells, Donor 1, BAFF + anti-IgM [1]: 0.311 nM | IC50 for proliferation of stimulated B cells, Donor 2, BAFF + anti-IgM [1]: 0.000215 nM | IC50 for proliferation of stimulated B cells, Donor 3, BAFF + anti-IgM [1]: 0.0201 nM | IC50 for proliferation of stimulated B cells, Donor 1, APRIL + anti-IgM [2]: 0.662 nM | IC50 for proliferation of stimulated B cells, Donor 2, APRIL + anti-IgM [2]: 0.226 nM | IC50 for proliferation of stimulated B cells, Donor 3, APRIL + anti-IgM [2]: 0.366 nM | IC50 for proliferation of stimulated B cells, Donor 1, BAFF-60mer + anti-IgM [3]: 0.835 nM | IC50 for proliferation of stimulated B cells, Donor 2, BAFF-60mer + anti-IgM [3]: 0.577 nM | IC50 for proliferation of stimulated B cells, Donor 3, BAFF-60mer + anti-IgM [3]: 0.61 nM | fold higher binding affinity vs Atacicept [4]: 600 to 800 fold | fold higher binding affinity vs Atacicept [5]: 600 to 800 fold | Kd [6]: 0.00024 nM | Kd [7]: 0.00015 nM | Kd [8]: 0.117 nM | Kd [9]: 0.025 nM | Kd [10]: 0.031 nM | IC50 [11]: 0.002 nM | IC50 [12]: 1.5 nM | IC50 [13]: 2.7 nM | Kd [14]: 0.00015 nM | fold higher binding affinity compared to Atacicept [15]: 600 to 800 fold | fold higher binding affinity compared to Atacicept [16]: 600 to 800 fold
B1: BAv9-1 CRD-IgG4 Fc (Fc fusion)
chain: AGQCSQNEYFDHLIRACIPCQLRCSSNTPPLTCQRYCNAGVTNSVGGGGSAESKYGPPCPPCPAPEAAGGPSVFLFPPKPKDTLMISRTPEVTCVVVDVSQEDPEVQFNWYVDGVEVHNAKTKPREEQFNSTYRVVSVLTVLHQDWLNGKEYKCKVSNKGLPSSIEKTISKAKGQPREPQVYTLPPSQEEMTKNQVSLTCLVKGFYPSDIAVEWESNGQPENNYKTTPPVLDSDGSFFLYSRLTVDKSRWQEGNVFSCSVMHEALHNHYTQKSLSLSPGK
notes: mature expressed protein; also called BAv9-1 CRD-Ig Fc; exemplary BCMA CRD variant-IgG4 fusion protein
